The text below walks through data of a protein production outcome set (Wang et al. 2014).

This data set can be described thus: label from the status in PepcDB records.

Consider “MAQARCGGELLGLRAVLCVPPCPMPRLLPLTLLLLAAAAHAQSAAPLTIEQAMADPDWIGPSVDQAWWQWDGKQVQYLLKRAGSPVRDTYRQSTAGGTAERVADTARAGLDAANPSYDATRQRMLFARNGDIFLRDLRSGALTQLTRSNEIESRPQFASDGGAIWRAGNNWYHWRADGGTAQVAVVKAERDPDAAPKPDVLREHQLATLATLRRDKEQRDALRTQDDAWRRADATRAAAPVYLGDEVEIVDSALSPDGRHLLVVTQATNAEEGQAGKMPKYVTESGYEEFQEVRTRVGRNASVAHALWLVDVSAGTAKSLSFDPLPGIATDPLAALRKAAKRDALKGNRAVRVESNGDGSGPAVHWSDDGRNVAVEIRAVDNKDRWIASVDLDNAKLQPRHRLSDSAWINWDFNDFGWLPDNRTLWLLSEESGYSQLYTMEGNSKPRQRTRGKWEVSMPVPSADGSGMFFLCNQKWPGDYEVCKLDLRNDQLTEVTALNGVEGFSLSPNGQQLLVSYSGSYLPTQLAVVPATGGQATVLTDTRTPAFKAQPWIAPQYVQVPSKHGAGTVWGKYYGPTTPEPGKQYPIVMFVHGAGYLQNVSERYTPYFREQMFHNLLVQQGYIVLDLDYRASRGYGRDWRTAIYRNMGHTELEDYLDGLDWLVATKQGDRARAGIYGGSYGGFMTYMALFRSPGTFKAGAALRPVGDWMQYNHEYTSNILNTPELDPEAYKTSSPINYAEGLRDHLLIAHGMIDDNVFFKDSVDMTQKLMELHKDNWQLALYPLERHGFTRADSWLDEYKRILKLFNAQVKP”, for which the protein production entry is listed as “failed”.

With “MAQDIIDGINPTRMELLSLKNRTKLAVKGHGLLKEKRDALIKEFFDILDRVKGVREAAERSLKEANEALLEAQIAMGDLAVRKASLSVKESIDVDIKSRSVMGVSVPVTNVKMEERSIIDRGYSFSDTTIQLDEAAKKFEESIKFLIELGEVEKTIFLLAEEIEATKRRVNALEHIMIPRFENTEKYIDMRLQEMERENFVRLKMIRSTIEKKDNEAKEAAIEEEAAEVEA”, the protein production result is on record as “failed”.

As to “MAQFAVIGLGSFGATVATELTKLNHDVIGIDSVKRNVEDLSDQLTHAVIADASDEHVLEELNIQNCETVVVAIGEDIEASILCVLHLKNMGVPQIWVKAKTKAHHMILSHLHVDKIIHPEEDMGVRIAQALNYPMVSRYMALDNDHFIVKVEIPKHLNGVHLLGLINEMSDVKTILLKRGKDIIYEPDPTCPVQSKDILILEGHIDQLKKLSRRFLPHEKTKN”, the protein production entry is on record as “failed”.

Turning to “MAQHFLLTQKAKTLSAFEIANISEAEAFDLLCEARWGSKENVVCSKCGVQHKAYFISIRKQWRCKHCHHTFSVTSGTIFANHKLPLKTYLYILIRFVNAVKGVSALEISRDAKINYRTAFVLCHKLRKALLESRDMQPLSGEVDMGGTYIHPAPRKANKKADRIDYRLKENQNPNKRCVVVAREHFSADEKAENSLYRGAKRSHVFVTYSETQSVVKNFAHAYIEKNSRINTDENTAYESLLLDYDLRTVNHKDEYRSDFGVTNNQAESFFSRFKRMYYGHVHKMSNTYLLNYANEIAYREDNRRKPNGWQFHDILGKCLETTNEQNEWCGYWQRKIFHQEVIWQ”, the protein production result is “failed”.

Consider “MAQKENNIIPMIFDEAFYRKMATQKWRQQDYKKAAEYYEKVLELSPKDFDIQQHYAQCLVKLNIGKKAERLFYENIVKDFHVAESFYELSQLNIELNEPNKAFLFGINYVILSEDKDFREMLEKTFEVAYTNEQKIELEAQLFSTQLLFQFLFSQGRLEEARTYILNQSYEIQQHRVIRNLLAMCYLYLGEYDSAKAMFEELLKEDNSDVHALCHYTLLLYNKKETEKYQKYLKILNKVVPLNDDETFKLGIVLSYLKQYRASQNLLYPLYKKGKFVSIQMYNALSFNFYYLGNKDESIEMWNKLTQISKVDVGYAPWVIEESKTVFESRVLPLLLDDNNHYRLYGIFLLHQLNGKEILMTEDIWSILESMNDYEKLYLTYLVQGLTLNKLDFIHRGMQRLYNFKKFKYNTSLFTDWINQAEMIISENVDLVDVDRYVAAFVYLSYRRSSQPLTKRQLMDDFNVSRYKLNKAIEFILSI”, for which the protein production result is reported as “failed”.

Regarding “MAQRERKAGVVKRDKADKWNHVETARYFRDLQENEVRTMHYLGLAYVVLSRRPNLQLKVPLSTQNYEDGAIVGAGERGGYALQLLFTCAANYPLARPLVEIVEKRNVSDAFEQVLRKEIDLILEEHLGLQMIVPVVTRLQITLNTEMKRQRF”, the protein production entry is on record as “failed”.

Consider “MAQRKNAKSSGNSSSSGSGSGSTSAGSSSPGARRETKHGGHKNGRKGGLSGTSFFTWFMVIALLGVWTSVAVVWFDLVDYEEVLGKLGIYDADGDGDFDVDDAKVLLGLKERSTSEPAVPPEEAEPHTEPEEQVPVEAEPQNIEDEAKEQIQSLLHEMVHAEHVEGEDLQQEDGPTGEPQQEDDEFLMATDVDDRFETLEPEVSHEETEHSYHVEETVSQDCNQDMEEMMSEQENPDSSEPVVEDERLHHDTDDVTYQVYEEQAVYEPLENEGIEITEVTAPPEDNPVEDSQVIVEEVSIFPVEEQQEVPPETNRKTDDPEQKAKVKKKKPKLLNKFDKTIKAELDAAEKLRKRGKIEEAVNAFKELVRKYPQSPRARYGKAQCEDDLAEKRRSNEVLRGAIETYQEVASLPDVPADLLKLSLKRRSDRQQFLGHMRGSLLTLQRLVQLFPNDTSLKNDLGVGYLLIGDNDNAKKVYEEVLSVTPNDGFAKVHYGFILKAQNKIAESIPYLKEGIESGDPGTDDGRFYFHLGDAMQRVGNKEAYKWYELGHKRGHFASVWQRSLYNVNGLKAQPWWTPKETGYTELVKSLERNWKLIRDEGLAVMDKAKGLFLPEDENLREKGDWSQFTLWQQGRRNENACKGAPKTCTLLEKFPETTGCRRGQIKYSIMHPGTHVWPHTGPTNCRLRMHLGLVIPKEGCKIRCANETRTWEEGKVLIFDDSFEHEVWQDASSFRLIFIVDVWHPELTPQQRRSLPAI”, for which the protein production entry was “failed”.

For “MAQSNSRETFSSRLGFILAAAGAAVGLGNIWGFPTQAASNGGGAFLLVYLILIFVVAFPMLVVEMAIGRYGQANPVDSMRSLTSQPAAKKVGGFVGWVGLSVPSAVLAFYSIVGGWIICFLLGAMTDLFGFTAASAWLKGFSVERNLFGTLIFYVLTILIVQGGVKQGIERWSTRLMPALFVLFAVLFIYIMTQQGAWEGLKHYLIPDFEKVWDRKLILAAMGQGFFSLTIGGCSMLIYGSYLSKKENLPKMAMSVTLVDTAVAFIAGLVVLPAMFVAMNKGVQIYAQDGSLLSSDTLVFTVLPLMFDSLGLLGQIFAMVFFLLLTIAALTSSISMLECPVALVGERFNTRRTPTSWVLGGLIALFSVVIVYNFGALFGLVATLATQYLQPTAALMFCLFGGWVWQRDAKMKELQAGFPELQQSLFGKIWPWYVKFVCPVLVATVIWASFG”, the protein production entry is recorded as “failed”.

With “MAQVEAPVIGITVLYFLAIIIIGYYSRQRLKSATDYYVAGRQVGAVVNGLALESTYLSPASMLGLPAYIFILGYPFWWAMSAIIAGMPIATLLTASALRKYAPTSFADYYADRYNDQRLRWLVGIVTVIGAVLYITLSLVGMALFLLAVAKVPYIIGLIVGTIIVMLYVVWGGMIATSWNAAFQAFLMTVAAVIAAAVIVIKLGGLGGFYEAVLANNPKFWNTPSDPEPPHLLSGTWIAVIGWFFVWHYGFATMPYTVVRFFTTMDIKTARRSIFWCTLAAGIFYMALEIIGAASKLMIETGPMGGEGANAVKILQSYMAQYGVGGWTDYSMIAAVEALQNPWVLGILCAGGLAIAMSTAAGWVMVVNTLLTRDWGDMLLKSKFAKEKPVTLARIISVIFLIVGFLVAINPPGLVLDLSGWAFVVIISALGPGLVLGLWWKRATRAAMWTTAIVMTPLHLYAWLKAKLVLGHHAFFFLNDVLFGNAKALITPHQVWAIPVGFLLFIIVSLITKPVEEEAVQKYCVELTKEV”, the protein production result is “failed”.

In the case of “MAQVNKQAIAAAFGRAASQYEQHASLQQHSADALLTLLTGRQFASVLDAGCGPGRMSRYWRERGSEVTALDLSLPMLQQARDRQAAHHYLLADIEAIPHDAEVFDLAWSNLAVQWCGDLRDALSELYRVVRPGGVVAFTTLCQGSLPELRQAWQAVDNRAHANSFLPEEAIDHALRGWRAFRHTQAMTLWFEDALSAMRSLKGIGATHLHEGRESDVLTRARLRQIQLAWPQRQGKYPLTYHLFMGVIERD”, the protein production result is given as “failed”.

Consider “MARANFEPYGRDFPGGRATGRFCNGRLSSDFTSEAYGLKPTVPAYLDPSYNISDFATGVCFASAGTGYDNSTADVLGVIPLWKEVEYFKEYQSNLSAYLGHRRAAKIIRESLYIVSIGTNDFLENYYTLPDRRSQFSISQYQDFLVEIAEVFLKDIYRLGARKMSFTGISPMGCLPLERVTNLDDPFSCARSYNDLAVDFNGRLRRLVTKLNRELTGIKIYFANPYDIMWDIVTKPNLYGLEISSSACCGTGLFEMGFLCGQDNPLTCSDANKFVFWDAFHPTERTNQIVSDHFFKHLKNLFH”, for which the protein production result is given as “failed”.

On to “MARAVHRSGLVALGIATALMASCAFAAKDVVVAVGSNFTTLDPYDANDTLSQAVAKSFYQGLFGLDKEMKLKNVLAESYTVSDDGITYTVKLREGIKFQDGTDFNAAAVKANLDRASDPANHLKRYNLYKNIAKTEAIDPTTVKITLKQPFSAFINILAHPATAMISPAALEKYGKEIGFYPVGTGPYELDTWNQTDFVKVKKFAGYWQPGLPKLDSITWRPVADNNTRAAMLQTGEAQFAFPIPYEQATLLEKNKNIELMASPSIMQRYISMNVTQKPFDNPKVREALNYAINRPALVKVAFAGYATPATGVVPPSIAYAQSYKPWPYDPVKARELLKEAGYPNGFSTTLWSSHNHSTAQKVLQFTQQQLAQVGIKAQVTAMDAGQRAAEVEGKGQKESGVRMFYTGWSASTGEADWALSPLFASQNWPPTLFNTAFYSNKQVDDFLAQALKTNDPAEKTRLYKAAQDIIWQESPWIPLVVEKLVSAHSKNLTGFWIMPDTGFSFEDADLQ”, for which the protein production entry was “not failed”.

As to “MARGELPRASISDTIPMTMASIDAGSVRFTARADKRHLNPLGGVHGGFAATVLDSVTGCAIHSILEAGVGYGTVDLSVKRVKAVPEDTPLVAEGRVLHVPCAIGSQRADLMLAPPRLGRDRRCPAGHAPAGAARAACAPQGRLTPMRRPLNAAPAARRCGRTGTDRSRAPGRACAAPWSSAC”, the protein production entry is given as “failed”.

As to “MARIRIEAPGTIVYETLMDVRIGDINYANHLGNDALLRIAQEARLRLFRDWGYVDELHIDGVGIVVADAAICYLSEAFLGDVLRILVGTADIHRKGLDFIYQVIDDNSGREVARLKTGIVFFDYPARQVALMPESFSAKLGQLEHHHHHH”, the protein production entry was “not failed”.

As for “MARLARLGEPFALATVVASSGSSPRKAGAKMLIRGDGSALGTVGGGHVEQDTLAAARASLAEGAPRTLEFVLTEEHGYACGGSMSVFIEPQGRRPLLVMFGAGHVGRAVTALAHGCGFRVIVVDERPEYAVPALLPGADEIVCVPVGAAFARLTLDRESFAVIATPGHVHDFDAVRGCLATEVGFIGLLGSRRKREALMKTLTEEGYEAGRQARVVTPVGLDIGAQTPEEIAVSIVGQLVKLRRQA”, the protein production entry was “failed”.

For “MARMKARSGKGRRVARDTWKTKSWYEIRTPQSFGGDLLGTTPANDPSNLLGRVTETSLKDLTNDHSKHMVRLYFKVDGVAGNNATTQFVGHNTTREYLKSLVRRRRSKIVTITDIRTKDGYKIRVKAMVLTAVRARDHHKTDIRKKMEQIIVNMARNSTFPEFVQAMLLGGLGSKIYATCKRIMPMKRVEIYKSEVMEFGKSATPVVEAPAETEVKEEVKKEVVETQTE”, the protein production entry is “failed”.

As to “MARPAYRLLAYSLWDLIPIAMAVAHFAFVLWLVLDFHALSWWVILPAALLYAVSLSWSINSISHNQIHNAYFTPGWMNRGFDLLLSVTIGFSQTLYRDIHNRHHRGNSDLPDANGKTVDPLSIYLHGKDGQPDNPWAYTFLSFFRDDPKEIYQEMQRKRPDDARWVKVEIGVTVAFYLALALYDWHAVLVLLPFWYLGQSLSSLNGYYEHLGGNPDLPIAWGVSSYSPLYNLIWMNNGYHAEHHYRPKMHWTKVKAFHREIREQQRAAGVKVIPVSHGLGFLVAHRKV”, the protein production result was “failed”.
